# Source: PMC3913652 (PLoS ONE, 2014)
# B1: rat albumin (natural protein, UniProt P02770 25-608, looked up)
# chain: EAHKSEIAHRFKDLGEQHFKGLVLIAFSQYLQKCPYEEHIKLVQEVTDFAKTCVADENAENCDKSIHTLFGDKLCAIPKLRDNYGELADCCAKQEPERNECFLQHKDDNPNLPPFQRPEAEAMCTSFQENPTSFLGHYLHEVARRHPYFYAPELLYYAEKYNEVLTQCCTESDKAACLTPKLDAVKEKALVAAVRQRMKCSSMQRFGERAFKAWAVARMSQRFPNAEFAEITKLATDVTKINKECCHGDLLECADDRAELAKYMCENQATISSKLQACCDKPVLQKSQCLAEIEHDNIPADLPSIAADFVEDKEVCKNYAEAKDVFLGTFLYEYSRRHPDYSVSLLLRLAKKYEATLEKCCAEGDPPACYGTVLAEFQPLVEEPKNLVKTNCELYEKLGEYGFQNAVLVRYTQKAPQVSTPTLVEAARNLGRVGTKCCTLPEAQRLPCVEDYLSAILNRLCVLHEKTPVSEKVTKCCSGSLVERRPCFSALTVDETYVPKEFKAETFTFHSDICTLPDKEKQIKKQTALAELVKHKPKATEDQLKTVMGDFAQFVDKCCKAADKDNCFATEGPNLVARSKEALA
# B2: monkey albumin (natural protein, UniProt A2V9Z4 25-608, looked up)
# chain: DTHKSEVAHRFKDLGEEHFKGLVLVAFSQYLQQCPFEEHVKLVNEVTEFAKTCVADESAENCDKSLHTLFGDKLCTVATLRETYGEMADCCAKQEPERNECFLQHKDDNPNLPPLVRPEVDVMCTAFHDNEATFLKKYLYEVARRHPYFYAPELLFFAARYKAAFAECCQAADKAACLLPKLDELRDEGKASSAKQRLKCASLQKFGDRAFKAWAVARLSQKFPKAEFAEVSKLVTDLTKVHTECCHGDLLECADDRADLAKYMCENQDSISSKLKECCDKPLLEKSHCLAEVENDEMPADLPSLAADYVESKDVCKNYAEAKDVFLGMFLYEYARRHPDYSVMLLLRLAKAYEATLEKCCAAADPHECYAKVFDEFQPLVEEPQNLVKQNCELFEQLGEYKFQNALLVRYTKKVPQVSTPTLVEVSRNLGKVGAKCCKLPEAKRMPCAEDYLSVVLNRLCVLHEKTPVSEKVTKCCTESLVNRRPCFSALELDEAYVPKAFNAETFTFHADMCTLSEKEKQVKKQTALVELVKHKPKATKEQLKGVMDNFAAFVEKCCKADDKEACFAEEGPKFVAASQAALA
# B3: dog albumin (natural protein, UniProt P49822 25-608, looked up)
# chain: EAYKSEIAHRYNDLGEEHFRGLVLVAFSQYLQQCPFEDHVKLAKEVTEFAKACAAEESGANCDKSLHTLFGDKLCTVASLRDKYGDMADCCEKQEPDRNECFLAHKDDNPGFPPLVAPEPDALCAAFQDNEQLFLGKYLYEIARRHPYFYAPELLYYAQQYKGVFAECCQAADKAACLGPKIEALREKVLLSSAKERFKCASLQKFGDRAFKAWSVARLSQRFPKADFAEISKVVTDLTKVHKECCHGDLLECADDRADLAKYMCENQDSISTKLKECCDKPVLEKSQCLAEVERDELPGDLPSLAADFVEDKEVCKNYQEAKDVFLGTFLYEYARRHPEYSVSLLLRLAKEYEATLEKCCATDDPPTCYAKVLDEFKPLVDEPQNLVKTNCELFEKLGEYGFQNALLVRYTKKAPQVSTPTLVEVSRKLGKVGTKCCKKPESERMSCAEDFLSVVLNRLCVLHEKTPVSERVTKCCSESLVNRRPCFSGLEVDETYVPKEFNAETFTFHADLCTLPEAEKQVKKQTALVELLKHKPKATDEQLKTVMGDFGAFVEKCCAAENKEGCFSEEGPKLVAAAQAALV
# Biological target: T1, [Leu^14]exenatide-ABD (leucine substituted for methionine at position 14 (stands in the printed …, C-terminus -OH (Table 1)))
# T1 construct: numbers count on: the exenatide peptide; Gly-Gly-Ser tri-peptide linker; 88 residue peptide; also called ABD fused exenatide; source: synthetic peptide (solid phase, reverse-phase HPLC)
# Assay: SPR; BioRad ProteOn XPR36, GLC sensor chip, 25°C; albumins amine-coupled (2000-5000 RU), peptides flowed over at 3 concentrations in duplicate; 10 mM HEPES pH 7.4, 150 mM NaCl, 3 mM EDTA, 0.005% Tween-20, 0.2 mg/ml ovalbumin; highest concentration dissociated for 3 hours; 1:1 (Langmuir) model with correction for mass transfer
# Conditions: both partners purified
row,Binder,Kd [nM]
1,B1,0.0082
2,B2,0.0402
3,B3,0.0981
